Measurements taken from patent US20240117057A1 (CELLDEX THERAPEUTICS, published 2024).
Like-named read-outs stand apart in the source and are kept apart here.

Experiments:
recombinant human FcγRI [1] = target: T1, recombinant human FcγRI (human, UniProt P12314 16-288); test: Bio-layer interferometry (Octet QKe), His-tagged FcγRI captured on anti-Penta-His biosensors; range 62.5-7.8 nM; fit R2 0.9955
T1 construct: Histidine-tagged recombinant receptor captured on anti-Penta-His biosensors; also called FcgRI; not shown: histidine tag

[2] = target: T2, recombinant human FcγRIIIb (human, UniProt O75015 17-200); test: BLI (Octet QKe), His-tagged receptor on anti-Penta-His biosensors, antibody in solution
T2 construct: Histidine-tagged recombinant receptor captured on anti-Penta-His biosensors; not shown: histidine tag

[3] = target: T3, recombinant human FcγRIIIa (human, UniProt P08637 17-208); test: as above
T3 construct: Histidine-tagged recombinant receptor captured on anti-Penta-His biosensors; not shown: histidine tag

recombinant human FcγRI [4] = target: T1, recombinant human FcγRI; test: as above
Procedure: (§1) Binding to recombinant human Fc receptors was measured by bio-layer interferometry using an Octet® QKe instrument. […] Curve fitting was performed using the instrument's analysis software.

[5] = target: T4, recombinant human FcγRIIa (human, UniProt P12318 36-218, limits assumed); test: as above
T4 construct: Histidine-tagged recombinant receptor captured on anti-Penta-His biosensors; not shown: histidine tag
T4 sequence (looked up): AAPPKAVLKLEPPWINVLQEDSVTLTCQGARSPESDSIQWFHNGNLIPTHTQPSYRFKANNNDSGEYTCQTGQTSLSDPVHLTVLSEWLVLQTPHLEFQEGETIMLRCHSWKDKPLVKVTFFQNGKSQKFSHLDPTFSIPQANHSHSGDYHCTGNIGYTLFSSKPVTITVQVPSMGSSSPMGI

recombinant human FcγRI [6] = target: T1, recombinant human FcγRI; test: Bio-layer interferometry (Octet QKe), His-tagged FcγRI captured on anti-Penta-His biosensors; printed as Kdis; range 62.5-7.8 nM; fit R2 0.9955
Procedure: (§2) Binding to recombinant human Fc receptors was measured by bio-layer interferometry using an Octet® QKe instrument. […] Curve fitting was performed using the instrument's analysis software. Binding to FcRn was performed with association and dissociation steps at pH 6.0 as well as pH 7.2.

[7] = target: T5, human neonatal Fc Receptor (FcRn) (human, UniProt P55899 24-297; P61769 21-119); test: Bio-layer interferometry (Octet QKe), His-tagged FcRn captured on anti-Penta-His biosensors, association and dissociation at pH 6.0; printed as Kdis; range 500-62.5 nM; fit R2 0.9757
T5 construct: Histidine-tagged recombinant receptor captured on anti-Penta-His biosensors; not shown: histidine tag

[8] = target: T5, human neonatal Fc Receptor (FcRn); test: Bio-layer interferometry (Octet QKe), His-tagged FcRn captured on anti-Penta-His biosensors, association and dissociation at pH 6.0; range 500-62.5 nM; fit R2 0.9757
Procedure: as §2

[9] = target: T6, recombinant human FcγRIIb (human, UniProt P31994 43-217, limits assumed); test: Bio-layer interferometry sensorgrams, FcγRIIb on the sensor, serial dilutions of antibody
T6 construct: Histidine-tagged recombinant receptor captured on anti-Penta-His biosensors; not shown: histidine tag
T6 sequence (looked up): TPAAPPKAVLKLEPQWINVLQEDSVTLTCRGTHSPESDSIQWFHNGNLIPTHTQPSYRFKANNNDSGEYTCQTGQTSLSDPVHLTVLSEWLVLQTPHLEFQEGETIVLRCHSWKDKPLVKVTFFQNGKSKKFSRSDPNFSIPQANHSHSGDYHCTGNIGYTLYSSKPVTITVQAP

[10] = target: T2, recombinant human FcγRIIIb; test: Bio-layer interferometry (Octet QKe), His-tagged FcγRIIIb captured on anti-Penta-His biosensors; printed as Kdis; range 500-62.5 nM; fit R2 0.9723
Procedure: as §2

human KIT = human KIT (human, UniProt P10721 26-976); test: cell-based or functional assay
[11] = target: T5, human neonatal Fc Receptor (FcRn); test: BLI (Octet QKe) at pH 6.0, His-tagged receptor on anti-Penta-His biosensors; pH 6.0 (to simulate endocytic conditions)
Procedure: as §2
(§3) Binding to the human neonatal Fc Receptor (FcRn) was tested at physiological pH 7.2 as well as at pH 6.0 to simulate endocytic conditions.

[12] = target: T3, recombinant human FcγRIIIa; test: Bio-layer interferometry (Octet QKe), His-tagged FcγRIIIa captured on anti-Penta-His biosensors; range 125-15.6 nM; fit R2 0.9895
Procedure: as §2

[13] = target: T4, recombinant human FcγRIIa; test: Bio-layer interferometry (Octet QKe), His-tagged FcγRIIa captured on anti-Penta-His biosensors; range 500-62.5 nM; fit R2 0.9791
Procedure: as §2

[14] = target: T3, recombinant human FcγRIIIa; test: Bio-layer interferometry (Octet QKe), His-tagged FcγRIIIa captured on anti-Penta-His biosensors; printed as Kdis; range 125-15.6 nM; fit R2 0.9895
Procedure: as §2

[15] = target: T2, recombinant human FcγRIIIb; test: Bio-layer interferometry (Octet QKe), His-tagged FcγRIIIb captured on anti-Penta-His biosensors; range 500-62.5 nM; fit R2 0.9723
Procedure: as §2

[16] = target: T4, recombinant human FcγRIIa; test: Bio-layer interferometry (Octet QKe), His-tagged FcγRIIa captured on anti-Penta-His biosensors; printed as Kdis; range 500-62.5 nM; fit R2 0.9791
Procedure: as §2

[17] = target: T5, human neonatal Fc Receptor (FcRn); test: Bio-layer interferometry (Octet QKe), His-tagged FcRn captured on anti-Penta-His biosensors, association and dissociation at pH 7.2; printed as Kdis; range 500-15.6 nM; fit R2 0.9876
Procedure: as §2, §3

recombinant human FcγRI [18] = target: T1, recombinant human FcγRI; test: Bio-layer interferometry (Octet QKe), His-tagged FcγRI captured on anti-Penta-His biosensors
Procedure: as §2

[19] = target: T5, human neonatal Fc Receptor (FcRn); test: Bio-layer interferometry (Octet QKe), His-tagged FcRn captured on anti-Penta-His biosensors, association and dissociation at pH 6.0; range 31.25-1.9 nM; fit R2 0.9869
Procedure: as §2, §3

[20] = target: T2, recombinant human FcγRIIIb; test: Bio-layer interferometry sensorgrams, FcγRIIIb on the sensor, serial dilutions of antibody
Procedure: as §2

[21] = target: T6, recombinant human FcγRIIb; test: Bio-layer interferometry sensorgrams, FcγRIIb on the sensor, serial dilutions of antibody; remark: listed apart in the source
Procedure: as §1

[22] = target: T5, human neonatal Fc Receptor (FcRn); test: Bio-layer interferometry (Octet QKe), His-tagged FcRn captured on anti-Penta-His biosensors, association and dissociation at pH 7.2; range 500-15.6 nM; fit R2 0.9876
Procedure: as §2

[23] = target: T5, human neonatal Fc Receptor (FcRn); test: BLI (Octet QKe) at pH 7.2, His-tagged receptor on anti-Penta-His biosensors
Procedure: as §2, §3

[24] = target: T5, human neonatal Fc Receptor (FcRn); test: BLI (Octet QKe) at pH 6.0, His-tagged receptor on anti-Penta-His biosensors
Procedure: as §2, §3

[25] = target: T4, recombinant human FcγRIIa; test: Bio-layer interferometry (Octet QKe), His-tagged FcγRIIa captured on anti-Penta-His biosensors
Procedure: as §1

[26] = target: T3, recombinant human FcγRIIIa; test: Bio-layer interferometry sensorgrams, FcγRIIIa on the sensor, serial dilutions of antibody
Procedure: as §1

[27] = target: T5, human neonatal Fc Receptor (FcRn); test: Bio-layer interferometry (Octet QKe), His-tagged FcRn captured on anti-Penta-His biosensors, association and dissociation at pH 6.0; printed as Kdis; range 31.25-1.9 nM; fit R2 0.9869
Procedure: as §2

T2 sequence (O75015 17-200 limits assumed): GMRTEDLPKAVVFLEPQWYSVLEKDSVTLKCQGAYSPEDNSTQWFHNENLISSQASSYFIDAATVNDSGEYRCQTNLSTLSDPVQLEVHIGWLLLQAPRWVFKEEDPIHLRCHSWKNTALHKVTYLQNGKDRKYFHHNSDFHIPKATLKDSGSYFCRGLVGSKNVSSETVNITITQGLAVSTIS
T1 sequence (P12314 16-288 limits assumed): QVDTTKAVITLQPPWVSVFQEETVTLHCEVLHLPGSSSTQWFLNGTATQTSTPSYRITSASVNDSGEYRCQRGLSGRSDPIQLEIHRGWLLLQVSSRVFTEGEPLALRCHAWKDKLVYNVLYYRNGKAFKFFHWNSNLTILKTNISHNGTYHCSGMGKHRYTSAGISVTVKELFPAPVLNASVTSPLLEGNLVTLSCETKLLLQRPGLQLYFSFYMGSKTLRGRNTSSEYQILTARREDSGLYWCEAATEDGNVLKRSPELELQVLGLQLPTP
T5 sequence (P55899 24-297 limits assumed, chain 1 of 2): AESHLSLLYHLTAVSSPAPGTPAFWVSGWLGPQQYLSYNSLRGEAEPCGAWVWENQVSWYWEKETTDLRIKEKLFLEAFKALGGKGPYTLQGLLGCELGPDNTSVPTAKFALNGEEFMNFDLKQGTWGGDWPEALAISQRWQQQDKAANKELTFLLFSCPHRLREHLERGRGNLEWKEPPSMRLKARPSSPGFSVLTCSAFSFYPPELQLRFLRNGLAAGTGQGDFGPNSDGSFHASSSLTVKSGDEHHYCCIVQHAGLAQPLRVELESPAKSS
T5 sequence (P61769 21-119 limits assumed, chain 2 of 2): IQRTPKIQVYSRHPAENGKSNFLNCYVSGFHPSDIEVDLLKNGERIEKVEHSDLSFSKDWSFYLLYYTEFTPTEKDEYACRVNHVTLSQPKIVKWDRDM
T3 sequence (P08637 17-208 limits assumed): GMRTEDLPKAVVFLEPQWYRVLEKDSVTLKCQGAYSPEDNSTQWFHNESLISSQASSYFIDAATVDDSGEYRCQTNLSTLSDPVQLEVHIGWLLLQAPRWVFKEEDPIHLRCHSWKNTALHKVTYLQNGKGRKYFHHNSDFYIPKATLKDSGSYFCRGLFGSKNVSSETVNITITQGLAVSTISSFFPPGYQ
human KIT, sequence (P10721 other isoform, or with tags, fused parts or gaps limits assumed): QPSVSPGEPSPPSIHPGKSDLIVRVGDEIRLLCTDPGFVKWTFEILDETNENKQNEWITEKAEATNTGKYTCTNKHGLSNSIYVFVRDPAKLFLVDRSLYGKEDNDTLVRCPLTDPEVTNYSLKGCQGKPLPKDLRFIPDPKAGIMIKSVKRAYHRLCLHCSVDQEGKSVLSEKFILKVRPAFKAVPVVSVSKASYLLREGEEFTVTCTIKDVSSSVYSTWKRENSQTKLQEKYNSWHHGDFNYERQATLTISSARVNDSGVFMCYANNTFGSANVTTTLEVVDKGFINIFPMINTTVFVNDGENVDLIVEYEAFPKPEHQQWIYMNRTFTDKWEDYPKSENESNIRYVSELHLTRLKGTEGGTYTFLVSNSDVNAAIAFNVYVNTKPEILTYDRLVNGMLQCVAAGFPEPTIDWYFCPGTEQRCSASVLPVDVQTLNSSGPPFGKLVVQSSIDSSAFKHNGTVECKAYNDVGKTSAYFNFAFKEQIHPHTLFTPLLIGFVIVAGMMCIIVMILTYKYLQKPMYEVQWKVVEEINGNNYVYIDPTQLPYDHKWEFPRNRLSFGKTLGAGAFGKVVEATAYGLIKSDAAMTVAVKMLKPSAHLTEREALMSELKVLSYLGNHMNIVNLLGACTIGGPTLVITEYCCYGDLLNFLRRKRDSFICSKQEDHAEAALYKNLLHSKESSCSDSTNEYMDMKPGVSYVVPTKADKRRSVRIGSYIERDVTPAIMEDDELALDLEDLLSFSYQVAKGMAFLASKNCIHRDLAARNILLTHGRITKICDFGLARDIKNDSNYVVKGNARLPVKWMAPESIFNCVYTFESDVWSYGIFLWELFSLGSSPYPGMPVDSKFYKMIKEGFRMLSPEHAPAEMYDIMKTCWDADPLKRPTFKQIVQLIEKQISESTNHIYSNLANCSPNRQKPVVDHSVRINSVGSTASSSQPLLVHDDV

B1: mAbc (antibody, human IgG1, kappa)
heavy: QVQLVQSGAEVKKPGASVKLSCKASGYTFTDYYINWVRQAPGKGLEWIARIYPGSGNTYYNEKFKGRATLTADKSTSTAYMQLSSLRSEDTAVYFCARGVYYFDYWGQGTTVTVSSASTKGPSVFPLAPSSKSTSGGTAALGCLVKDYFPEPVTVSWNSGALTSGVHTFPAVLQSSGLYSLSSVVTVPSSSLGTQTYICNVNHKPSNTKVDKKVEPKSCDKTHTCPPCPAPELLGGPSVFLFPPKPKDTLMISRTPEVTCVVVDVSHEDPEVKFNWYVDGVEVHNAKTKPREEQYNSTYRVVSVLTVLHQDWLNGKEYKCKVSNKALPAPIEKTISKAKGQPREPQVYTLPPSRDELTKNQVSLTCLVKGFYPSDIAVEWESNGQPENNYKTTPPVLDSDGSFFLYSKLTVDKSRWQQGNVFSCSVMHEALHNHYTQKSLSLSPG
light: DIVMTQSPSSLSASVGDRVTITCKASQNVRTNVAWYQQKPGKAPKALIYSASYRYSGVPDRFTGSGSGTDFTLTISSLQPEDFADYFCQQYNSYPRTFGGGTKVEIKRTVAAPSVFIFPPSDEQLKSGTASVVCLLNNFYPREAKVQWKVDNALQSGNSQESVTEQDSKDSTYSLSSTLTLSKADYEKHKVYACEVTHQGLSSPVTKSFNRGEC
notes: Positions are EU numbers; also called corresponding antibody with a wild-type (unmutated) IgG1 Fc domain; copies: 2 + 2
kon (recombinant human FcγRI [1]): 522000 M⁻¹ s⁻¹
Kd [2]: 816 nM
Kd [3]: 127 nM
Kd (recombinant human FcγRI [4]): 3.39 nM
Kd [5]: 391 nM
koff (recombinant human FcγRI [6]): 0.00177 s⁻¹
koff [7]: 0.0296 s⁻¹
kon [8]: 141000 M⁻¹ s⁻¹
binding result [9]: no binding (tested: 500 nM (range given in FIG. 7))
koff [10]: 0.124 s⁻¹
IC50, inhibition of SCF-dependent M-07e cell proliferation (human KIT): 1.12 nM
Kd [11]: 211 nM
kon [12]: 128000 M⁻¹ s⁻¹
kon [13]: 358000 M⁻¹ s⁻¹
koff [14]: 0.0162 s⁻¹
kon [15]: 152000 M⁻¹ s⁻¹
koff [16]: 0.14 s⁻¹

B2: mAb1 (antibody, human IgG1, kappa)
heavy: QVQLVQSGAEVKKPGASVKLSCKASGYTFTDYYINWVRQAPGKGLEWIARIYPGSGNTYYNEKFKGRATLTADKSTSTAYMQLSSLRSEDTAVYFCARGVYYFDYWGQGTTVTVSSASTKGPSVFPLAPSSKSTSGGTAALGCLVKDYFPEPVTVSWNSGALTSGVHTFPAVLQSSGLYSLSSVVTVPSSSLGTQTYICNVNHKPSNTKVDKKVEPKSCDKTHTCPPCPAPEAQGGPSVFLFPPKPKDTLYITREPEVTCVVVDVSHEDPEVKFNWYVDGVEVHNAKTKPREEQYNSTYRVVSVLTVLHQDWLNGKEYKCQVSNKALPAPIEKTISKAKGQPREPQVYTLPPSRDELTKNQVSLTCLVKGFYPSDIAVEWESNGQPENNYKTTPPVLDSDGSFFLYSKLTVDKSRWQQGNVFSCSVMHEALHNHYTQKSLSLSPG
light: DIVMTQSPSSLSASVGDRVTITCKASQNVRTNVAWYQQKPGKAPKALIYSASYRYSGVPDRFTGSGSGTDFTLTISSLQPEDFADYFCQQYNSYPRTFGGGTKVEIKRTVAAPSVFIFPPSDEQLKSGTASVVCLLNNFYPREAKVQWKVDNALQSGNSQESVTEQDSKDSTYSLSSTLTLSKADYEKHKVYACEVTHQGLSSPVTKSFNRGEC
notes: Humanized anti-human KIT IgG1 with mutated Fc, expressed in CHO cells; also called antibody mAb 1; anti-KIT antibody; copies: 2 + 2
koff [17]: 0.0807 s⁻¹
IC50, inhibition of SCF-dependent M-07e cell proliferation (human KIT): 1.11 nM
binding result (recombinant human FcγRI [18]): no binding (tested: 500 nM)
Kd [19]: 0.383 nM
kon [19]: 2e+06 M⁻¹ s⁻¹
binding result [20]: no binding (tested: 500 nM (range given in FIG. 7))
binding result [21]: no binding (tested: 500 nM (range given in FIG. 7))
kon [22]: 1.05e+06 M⁻¹ s⁻¹
Kd [23]: 77.1 nM
Kd [24]: 0.38 nM
binding result [25]: no binding (tested: 500 nM)
binding result [26]: no binding (tested: 500 nM (range given in FIG. 7))
koff [27]: 0.000765 s⁻¹
